Molecular target: aimp2_crigr AIMP2 (UniProt Q9WVM7)
Sequence (Q9WVM7 whole entry): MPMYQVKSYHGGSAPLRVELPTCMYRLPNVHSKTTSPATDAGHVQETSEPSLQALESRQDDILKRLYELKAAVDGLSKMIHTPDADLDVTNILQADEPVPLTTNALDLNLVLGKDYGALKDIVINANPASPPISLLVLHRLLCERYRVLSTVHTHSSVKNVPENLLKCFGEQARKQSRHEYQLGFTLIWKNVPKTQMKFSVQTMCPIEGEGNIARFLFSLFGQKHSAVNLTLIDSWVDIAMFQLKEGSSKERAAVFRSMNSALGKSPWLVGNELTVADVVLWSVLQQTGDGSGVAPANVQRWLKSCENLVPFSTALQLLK

Sequence of Lysine--tRNA ligase (Cricetulus griseus (Chinese hamster)), P37879 P200L (P37879 whole entry P200L): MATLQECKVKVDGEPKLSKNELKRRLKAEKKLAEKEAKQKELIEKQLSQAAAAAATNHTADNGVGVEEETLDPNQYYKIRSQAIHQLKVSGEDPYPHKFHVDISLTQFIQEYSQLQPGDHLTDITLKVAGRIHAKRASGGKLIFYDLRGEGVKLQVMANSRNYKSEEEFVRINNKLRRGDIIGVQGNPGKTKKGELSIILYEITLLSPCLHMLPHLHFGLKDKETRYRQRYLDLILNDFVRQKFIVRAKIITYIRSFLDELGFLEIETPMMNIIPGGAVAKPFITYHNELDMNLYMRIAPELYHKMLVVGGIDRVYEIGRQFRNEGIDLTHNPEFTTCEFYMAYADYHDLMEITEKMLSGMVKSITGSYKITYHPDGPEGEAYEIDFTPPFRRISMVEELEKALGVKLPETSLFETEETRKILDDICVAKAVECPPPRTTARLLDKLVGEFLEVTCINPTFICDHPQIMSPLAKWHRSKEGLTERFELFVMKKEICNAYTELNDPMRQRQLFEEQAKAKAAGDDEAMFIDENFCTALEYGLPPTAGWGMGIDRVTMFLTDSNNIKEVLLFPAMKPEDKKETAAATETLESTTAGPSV
Sequence of Lysine--tRNA ligase (Cricetulus griseus (Chinese hamster)), P37879 F263V (P37879 whole entry F263V): as the sequence (P37879 whole entry P200L) above, with L200P, F263V counted along it

Substance | effect of a mutation on the interaction
Lysine--tRNA ligase (Cricetulus griseus (Chinese hamster)), P37879 F263V | decreasing interaction strength
Lysine--tRNA ligase (Cricetulus griseus (Chinese hamster)), P37879 P200L | decreasing interaction strength

From IntAct's records for PubMed 31116475
